According to patent publication US20220227830A1, “QD DOSING OF GIP RECEPTOR AGONIST PEPTIDE COMPOUNDS AND USES THEREOF” (Takeda Pharmaceutical Company Limited, priority 2020, published 2022):
Starred links: 1 amine or outer side, 2 acyl side, 3 side chain; linkers in the order of their positions; H or OH if unused. Non-standard residues stand in square brackets, D forms with d. Groups on a side chain read outwards from the residue. No end group written: not given here. *: point of attachment. C15 diacid = O=C(O)CCCCCCCCCCCCCC(=O)*; γGlu = O=C(O)[C@H](CCC(=O)[*:2])N[*:1]; NMeY = CN[C@@H](Cc1ccc(O)cc1)C(=O)O; AEEA = NCCOCCOCC(=O)O; Aib = CC(C)(N)C(=O)O

T1: full-length human GIPR with an N-terminal FLAG tag (human, UniProt P48546 22-466)
T1 sequence (looked up): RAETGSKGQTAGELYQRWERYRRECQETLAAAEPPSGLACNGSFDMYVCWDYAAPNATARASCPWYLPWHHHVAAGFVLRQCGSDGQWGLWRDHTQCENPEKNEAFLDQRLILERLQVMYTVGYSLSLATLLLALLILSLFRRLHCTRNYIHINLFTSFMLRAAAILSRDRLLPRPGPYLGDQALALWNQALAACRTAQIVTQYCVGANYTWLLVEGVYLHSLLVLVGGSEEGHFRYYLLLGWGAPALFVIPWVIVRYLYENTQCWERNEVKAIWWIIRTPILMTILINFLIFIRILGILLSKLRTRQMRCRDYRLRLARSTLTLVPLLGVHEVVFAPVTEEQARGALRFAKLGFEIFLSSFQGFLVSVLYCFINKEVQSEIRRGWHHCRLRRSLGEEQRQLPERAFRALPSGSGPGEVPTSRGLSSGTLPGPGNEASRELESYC

B1: Compound 92 (peptide)
peptide: [NMeY][Aib]EGTFISDYSIALDR[Aib]AQ[Aib]K([AEEA-AEEA-γGlu-C15 diacid])FVNWLLAQSPSSGAPPPS-NH2
modifications: N-terminus assumed
SMILES: CC[C@H](C)[C@H](NC(=O)[C@H](CO)NC(=O)[C@H](Cc1ccc(O)cc1)NC(=O)[C@H](CC(=O)O)NC(=O)[C@H](CO)NC(=O)[C@@H](NC(=O)[C@H](Cc1ccccc1)NC(=O)[C@@H](NC(=O)CNC(=O)[C@H](CCC(=O)O)NC(=O)C(C)(C)NC(=O)[C@H](Cc1ccc(O)cc1)NC)[C@@H](C)O)[C@@H](C)CC)C(=O)N[C@@H](C)C(=O)N[C@@H](CC(C)C)C(=O)N[C@@H](CC(=O)O)C(=O)N[C@@H](CCCNC(=N)N)C(=O)NC(C)(C)C(=O)N[C@@H](C)C(=O)N[C@@H](CCC(N)=O)C(=O)NC(C)(C)C(=O)N[C@@H](CCCCNC(=O)COCCOCCNC(=O)COCCOCCNC(=O)CC[C@H](NC(=O)CCCCCCCCCCCCCC(=O)O)C(=O)O)C(=O)N[C@@H](Cc1ccccc1)C(=O)N[C@H](C(=O)N[C@@H](CC(N)=O)C(=O)N[C@@H](Cc1c[nH]c2ccccc12)C(=O)N[C@@H](CC(C)C)C(=O)N[C@@H](CC(C)C)C(=O)N[C@@H](C)C(=O)N[C@@H](CCC(N)=O)C(=O)N[C@@H](CO)C(=O)N1CCC[C@H]1C(=O)N[C@@H](CO)C(=O)N[C@@H](CO)C(=O)NCC(=O)N[C@@H](C)C(=O)N1CCC[C@H]1C(=O)N1CCC[C@H]1C(=O)N1CCC[C@H]1C(=O)N[C@@H](CO)C(N)=O)C(C)C
B2: Compound 95 (peptide)
peptide: [NMeY][Aib]EGTFISDYSI[Aib]K([GGEEE-C15 diacid])DR[Aib]AQ[Aib]NFVNWLLAQRPSSGAPPPS-NH2
B3: Compound 94 (peptide)
peptide: [NMeY][Aib]EGTFISDYSI[Aib]K([AEEA-γGlu-γGlu-C15 diacid])DR[Aib]AQ[Aib]NFVNWLLAQRPSSGAPPPS-NH2
modifications: N-terminus assumed
SMILES: CC[C@H](C)[C@H](NC(=O)[C@H](Cc1ccccc1)NC(=O)[C@@H](NC(=O)CNC(=O)[C@H](CCC(=O)O)NC(=O)C(C)(C)NC(=O)[C@H](Cc1ccc(O)cc1)NC)[C@@H](C)O)C(=O)N[C@@H](CO)C(=O)N[C@@H](CC(=O)O)C(=O)N[C@@H](Cc1ccc(O)cc1)C(=O)N[C@@H](CO)C(=O)N[C@H](C(=O)NC(C)(C)C(=O)N[C@@H](CCCCNC(=O)COCCOCCNC(=O)CC[C@H](NC(=O)CC[C@H](NC(=O)CCCCCCCCCCCCCC(=O)O)C(=O)O)C(=O)O)C(=O)N[C@@H](CC(=O)O)C(=O)N[C@@H](CCCNC(=N)N)C(=O)NC(C)(C)C(=O)N[C@@H](C)C(=O)N[C@@H](CCC(N)=O)C(=O)NC(C)(C)C(=O)N[C@@H](CC(N)=O)C(=O)N[C@@H](Cc1ccccc1)C(=O)N[C@H](C(=O)N[C@@H](CC(N)=O)C(=O)N[C@@H](Cc1c[nH]c2ccccc12)C(=O)N[C@@H](CC(C)C)C(=O)N[C@@H](CC(C)C)C(=O)N[C@@H](C)C(=O)N[C@@H](CCC(N)=O)C(=O)N[C@@H](CCCNC(=N)N)C(=O)N1CCC[C@H]1C(=O)N[C@@H](CO)C(=O)N[C@@H](CO)C(=O)NCC(=O)N[C@@H](C)C(=O)N1CCC[C@H]1C(=O)N1CCC[C@H]1C(=O)N1CCC[C@H]1C(=O)N[C@@H](CO)C(N)=O)C(C)C)[C@@H](C)CC
B4: Compound 96 (peptide)
peptide: [NMeY][Aib]EGTFISDYSIALDR[Aib]AQ[Aib]KFVNWLLAQRGGGGS-NH2
modifications: not fully specified (residue 21)
B5: Compound 91 (peptide)
peptide: [NMeY][Aib]EGTFISDYSIALDR[Aib]AQ[Aib]NFVNWLLAQK([AEEA-AEEA-γGlu-γGlu-C15 diacid])-NH2
modifications: N-terminus assumed
SMILES: CC[C@H](C)[C@H](NC(=O)[C@H](CO)NC(=O)[C@H](Cc1ccc(O)cc1)NC(=O)[C@H](CC(=O)O)NC(=O)[C@H](CO)NC(=O)[C@@H](NC(=O)[C@H](Cc1ccccc1)NC(=O)[C@@H](NC(=O)CNC(=O)[C@H](CCC(=O)O)NC(=O)C(C)(C)NC(=O)[C@H](Cc1ccc(O)cc1)NC)[C@@H](C)O)[C@@H](C)CC)C(=O)N[C@@H](C)C(=O)N[C@@H](CC(C)C)C(=O)N[C@@H](CC(=O)O)C(=O)N[C@@H](CCCNC(=N)N)C(=O)NC(C)(C)C(=O)N[C@@H](C)C(=O)N[C@@H](CCC(N)=O)C(=O)NC(C)(C)C(=O)N[C@@H](CC(N)=O)C(=O)N[C@@H](Cc1ccccc1)C(=O)N[C@H](C(=O)N[C@@H](CC(N)=O)C(=O)N[C@@H](Cc1c[nH]c2ccccc12)C(=O)N[C@@H](CC(C)C)C(=O)N[C@@H](CC(C)C)C(=O)N[C@@H](C)C(=O)N[C@@H](CCC(N)=O)C(=O)N[C@@H](CCCCNC(=O)COCCOCCNC(=O)COCCOCCNC(=O)CC[C@H](NC(=O)CC[C@H](NC(=O)CCCCCCCCCCCCCC(=O)O)C(=O)O)C(=O)O)C(N)=O)C(C)C
B6: Compound 93 (peptide)
peptide: [NMeY][Aib]EGTFISDYSIALDR[Aib]AQ[Aib]K([AEEA-AEEA-γGlu-γGlu-C15 diacid])FVNWLLAQSPSSGAPPPS-NH2
modifications: N-terminus assumed
SMILES: CC[C@H](C)[C@H](NC(=O)[C@H](CO)NC(=O)[C@H](Cc1ccc(O)cc1)NC(=O)[C@H](CC(=O)O)NC(=O)[C@H](CO)NC(=O)[C@@H](NC(=O)[C@H](Cc1ccccc1)NC(=O)[C@@H](NC(=O)CNC(=O)[C@H](CCC(=O)O)NC(=O)C(C)(C)NC(=O)[C@H](Cc1ccc(O)cc1)NC)[C@@H](C)O)[C@@H](C)CC)C(=O)N[C@@H](C)C(=O)N[C@@H](CC(C)C)C(=O)N[C@@H](CC(=O)O)C(=O)N[C@@H](CCCNC(=N)N)C(=O)NC(C)(C)C(=O)N[C@@H](C)C(=O)N[C@@H](CCC(N)=O)C(=O)NC(C)(C)C(=O)N[C@@H](CCCCNC(=O)COCCOCCNC(=O)COCCOCCNC(=O)CC[C@H](NC(=O)CC[C@H](NC(=O)CCCCCCCCCCCCCC(=O)O)C(=O)O)C(=O)O)C(=O)N[C@@H](Cc1ccccc1)C(=O)N[C@H](C(=O)N[C@@H](CC(N)=O)C(=O)N[C@@H](Cc1c[nH]c2ccccc12)C(=O)N[C@@H](CC(C)C)C(=O)N[C@@H](CC(C)C)C(=O)N[C@@H](C)C(=O)N[C@@H](CCC(N)=O)C(=O)N[C@@H](CO)C(=O)N1CCC[C@H]1C(=O)N[C@@H](CO)C(=O)N[C@@H](CO)C(=O)NCC(=O)N[C@@H](C)C(=O)N1CCC[C@H]1C(=O)N1CCC[C@H]1C(=O)N1CCC[C@H]1C(=O)N[C@@H](CO)C(N)=O)C(C)C
B7: Compound 97 (peptide)
peptide: [NMeY][Aib]EGTFISDYSIAK([G5-γGlu-C15 diacid])DR[Aib]AQ[Aib]DFVNWLLAQRGGGGS-NH2

How the values were obtained:
[1] = molecular target: T1, full-length human GIPR with an …; assay: cell-based or functional assay
[2] = molecular target: full-length human GLP-1R with an N-terminal FLAG tag (human, UniProt P43220 24-463); assay: cell-based or functional assay

Row | Binder | Human GIPR cAMP, HEK293T EC50 [1] | Human GLP1R cAMP HEK293T EC50 [2]
1 | B1 | 0.0013 nM | 74.1 nM
2 | B2 | 0.0002 nM | 537 nM
3 | B3 | 0.0006 nM | 501 nM
4 | B4 | 0.0004 nM | 89.1 nM
5 | B5 | 0.0008 nM | 126 nM
6 | B6 | 0.0002 nM | 490 nM
7 | B7 | 0.0002 nM | 490 nM
